For test [1], the target named is CD20 on human cells (Daudi cells, B cells in PBMCs) (human) (UniProt P11836). Kind of test: cell-based or functional assay.
Test [2] has as its target Soluble single-chain human neonatal Fc receptor (scFcRn) (human) (UniProt P55899). Kind of test: SPR (Biacore X), scFcRn immobilized on CM5 chip, pH 6.0, two-state model; Run 1.
The target is the same in test [3]. Kind of test: SPR (Biacore X), scFcRn immobilized on CM5 chip, pH 6.0, two-state model; Run 2. For orientation: SPR reads the build-up and loss of mass on a sensor chip optically.
For test [4] the target is unchanged. Kind of test: SPR (Biacore X), scFcRn immobilized on CM5 chip, pH 6.0, two-state model; Run 3.
Test [5] has the same target. Kind of test: SPR (Biacore X), scFcRn immobilized on CM5 chip, pH 6.0, two-state model; mean of 3 runs.
Test [6] addresses CD22 on human cells (B cells in PBMCs, Daudi, D1-1) (human) (UniProt P20273). Kind of test: cell-based or functional assay.

Experimental findings from patent US20160251444A1 are described below.

The Kd is the concentration at which binding is half-saturated.

Chain of Soluble single-chain human neonatal Fc receptor (scFcRn) (human) (P55899 24-297 limits assumed, chain 1 of 2): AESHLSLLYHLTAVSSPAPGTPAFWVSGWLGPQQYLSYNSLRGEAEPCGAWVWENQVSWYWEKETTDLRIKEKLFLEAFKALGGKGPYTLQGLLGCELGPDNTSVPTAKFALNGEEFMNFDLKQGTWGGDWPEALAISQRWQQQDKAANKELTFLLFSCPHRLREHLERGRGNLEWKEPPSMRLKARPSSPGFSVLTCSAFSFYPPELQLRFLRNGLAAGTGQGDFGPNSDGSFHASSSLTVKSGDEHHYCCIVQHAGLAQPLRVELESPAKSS
Chain of Soluble single-chain human neonatal Fc receptor (scFcRn) (human) (P61769 21-119 limits assumed, chain 2 of 2, further chain): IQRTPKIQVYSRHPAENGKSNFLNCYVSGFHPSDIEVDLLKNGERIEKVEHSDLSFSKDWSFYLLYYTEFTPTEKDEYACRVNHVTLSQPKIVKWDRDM
Chain of CD20 on human cells (Daudi cells, B cells in PBMCs) (human) (P11836 whole entry): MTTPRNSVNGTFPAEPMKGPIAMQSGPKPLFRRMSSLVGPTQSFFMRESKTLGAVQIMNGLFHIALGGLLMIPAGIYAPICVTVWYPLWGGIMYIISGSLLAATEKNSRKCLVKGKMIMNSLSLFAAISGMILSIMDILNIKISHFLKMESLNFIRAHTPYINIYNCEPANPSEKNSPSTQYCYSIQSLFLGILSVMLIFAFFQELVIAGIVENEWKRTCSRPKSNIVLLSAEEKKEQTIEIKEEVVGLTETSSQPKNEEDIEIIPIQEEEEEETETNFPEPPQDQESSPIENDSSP

“20*-2b (Ck-IgG-IFNα: veltuzumab with four IFNα2b fused at the light chains) (from UniProt P01563 24-188)”: in test [1], the in vitro cytotoxicity in Daudi cells (MTS assay), EC50 was 0.0002 nM. The same measure, in the same setting: as for “20-2b (Fc-IgG-IFNα: veltuzumab with four IFNα2b fused at the heavy chains) (from UniProt P01563 24-188)”, the figure is 0.0002 nM. Turning to “Epratuzumab (humanized anti-CD22 IgG1) (antibody)”, the Kd in test [2] came out at 15 nM; in test [3] it was 17.9 nM; in test [4] it was 15.8 nM; in test [5], 16.3 nM.

B1: F(ab')2 fragment of epratuzumab (protein, INN chains, looked up)
VH: QVQLVQSGAEVKKPGSSVKVSCKASGYTFTSYWLHWVRQAPGQGLEWIGYINPRNDYTEYNQNFKDKATITADESTNTAYMELSSLRSEDTAFYFCARRDITTFYWGQGTTVTVSS
VL: DIQLTQSPSSLSASVGDRVTMSCKSSQSVLYSANHKNYLAWYQQKPGKAPKLLIYWASTRESGVPSRFSGSGSGTDFTFTISSLQPEDIATYYCHQYLSSWTFGGGTKLEIK
modifications: F(ab')2
As for B1, the surface CD22 on B cells of PBMCs after treatment, % of isotype control MFI (flow cytometry) in test [6] was found to be 45 % control.
